# Reference: patent publication US20220364055A1 (Novartis, published 2022)
# B1: anti-human BCMA single chain antibody variable fragment (scFv) (PI61) (scFv)
# scFv: QVQLQESGGGVVQPGRSLRLSCAASGFTFSSYGMHWVRQAPGKGLEWVAVISYDGSNKYYADSVKGRFTISRDNSKNTLYLQMNSLRAEDTAVYYCGGSGYALHDDYYGLDVWGQGTLVTVSSGGGGSGGGGSGGGGSQSALTQPASVSGSPGQSITISCTGTSSDVGGYNYVSWYQQHPGKAPKLMIYDVSNRPSGVSNRFSGSKSGNTASLTISGLQAEDEADYYCSSYTSSSTLYVFGSGTKVTVL
# notes: also called PI61 scFv
# Target: T1, BCMA (TNFRSF17) (human, UniProt Q02223 1-184, limits assumed)
# T1 construct: Member of a commercial human plasma membrane protein array; the construct is not described
# T1 sequence (looked up): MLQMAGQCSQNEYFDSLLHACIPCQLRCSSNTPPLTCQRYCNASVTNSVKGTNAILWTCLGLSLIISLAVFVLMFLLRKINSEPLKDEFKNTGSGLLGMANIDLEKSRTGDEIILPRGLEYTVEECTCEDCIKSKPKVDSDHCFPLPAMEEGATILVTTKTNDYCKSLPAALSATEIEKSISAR
# Test: commercial human plasma membrane protein array
binder,measurement,value
B1,binding result,binds
